The values below come from US20040171537A1 (HOSPITAL FOR SICK CHILDREN, published 2004).

Test [1] deals with T1, c-Cbl (endogenous, Jurkat T-cell lysate) (human, UniProt P22681 1-906, tyrosine phosphorylated after anti-CD3 stimulation (sites not given)).
T1 construct: also called 120 kDa phosphoprotein
The experiment in a line: GST pull-down from Jurkat T-cell lysates, anti-c-Cbl immunoblot. (In general: In western blotting, separated proteins are transferred to a membrane and probed.)

The target in test [2] is T1, c-Cbl (endogenous, Jurkat T-cell lysate). The test is described as follows: GST pull-down from unstimulated or anti-CD3 stimulated Jurkat lysates, anti-c-Cbl immunoblot. As for the experimental part:
Full-length MARS and MARS-v coding regions were fused in-frame to glutathione-S-transferase, in PGEX4T1. Recombinant GST fusion proteins were expressed in bacteria and purified on glutathione sepharose (GS) (Pharmacia). Jurkat T-cells (20×10⁶) were either left unstimulated (−) or stimulated with anti-CD3 (+); (anti-human CD3ε, clone UCGT1, Pharmingen) for 2 minutes. Cells were lysed in 1% NP-40 lysis buffer containing 1 mM sodium orthovanadate and complete protease inhibitors (Roche). Cell lysates were incubated with 4 μg of GS bound GST fusion proteins for 90 minutes at 4° C. and washed 4 times for 10 minutes with 0.1% NP-40 lysis buffer. Bound proteins were eluted by boiling in 2×SDS sample buffer and were resolved by SDS-PAGE on 10% polyacrylamide gels. Proteins were subsequently transferred to PVDF membrane (NEN) and blotted with anti-phosphotyrosine antibody (clone 4G10, UBI; top panel, FIG. 13). Membranes were stripped and reprobed with anti-c-Cbl antibody (Santa Cruz; middle panel, FIG. 13), and subsequently stained with Coomassie blue dye to check for equal loading of the respective fusions (bottom panel, FIG. 13).

B1: GST-MARS delta-C (deletion of the carboxy-terminal 70 amino acids) (other, not shown: a dimerising Fc or GST; large carriers; small tags and cut ends)
chain: MGSLSSRGKTSSPSPSSSGPDQEPVSMQPERHKVTAVALGSFPAGEQARLSLRLGEPLTIISEDGDWWTVQSEVSGREYHMPSVYVAKVAHGWLYEGLSREKAEELLLLPGNPGGAFLIRESQTRRGCYSLSVRLSRPASWDRIRHYRIQRLDNGWLYISPRLTFPSLHALVEHYSELADGICCPLREP
modifications: N-terminal GST fusion from pGEX-4T1; GST letters are not given and are left out
notes: Residues 1-189 are worked out from the 259-residue entry; also called MARS AC mutant; C-terminal deletion mutant of MARS
Consider B1, for which the binding result in test [1] is “no binding”.

B2: GST fusion of human MARS-v (MARS short isoform, splice variant) (other, not shown: a dimerising Fc or GST; large carriers; small tags and cut ends)
chain: MGSLPSRRKSLPSPSLSSSVQGQGPVTMEAERSKATAVALGSFPAGGPAELSLRLGEPLTIVSEDGDWWTVLSEVSGREYNIPSVHVAKVSHGWLYEGLSREKAEELLLLPGNPGGAFLIRESQTRRGSYSLSVRLSRPASWDRIRHYRIHCLDNGWLYISPRLTFPSLQALVDHYSEGWPAPWQGYTPTCDCAEDTTQLERAGQLPPVF
modifications: N-terminal GST fusion from pGEX-4T1; GST letters are not given and are left out
notes: The full-length MARS-v coding region (210 amino acids) was fused in-frame to GST; also called MARS-variant; MARS splice variant
Take B2: in test [2], the binding result is “no binding (tested: 4 µg of GS bound GST fusion proteins)”.
